Experimental findings from doi:10.1101/2024.02.14.580290 (bioRxiv, 2024) are described below.

The target of this experiment is rat Gβ1 with Hexa-His-tag (in purified Gαsβ1γ2) (rat, UniProt P54311 2-340). As to the kind of experiment: cross-linking.

B1: bovine Gαs short subunit (in purified Gαsβ1γ2) (natural protein)
chain: MGCLGNSKTEDQRNEEKAQREANKKIEKQLQKDKQVYRATHRLLLLGAGESGKSTIVKQMRILHVNGFNGDGEKATKVQDIKNNLKEAIETIVAAMSNLVPPVELANPENQFRVDYILSVMNVPDFDFPPEFYEHAKALWEDEGVRACYERSNEYQLIDCAQYFLDKIDVIKQDDYVPSDQDLLRCRVLTSGIFETKFQVDKVNFHMFDVGGQRDERRKWIQCFNDVTAIIFVVASSSYNMVIREDNQTNRLQEALNLFKSIWNNRWLRTISVILFLNKQDLLAEKVLAGKSKIEDYFPEFARYTTPEDATPEPGEDPRVTRAKYFIRDEFLRISTASGDGRHYCYPHFTCAVDTENIRRVFNDCRDIIQRMHLRQYELL
Consider B1, for which the binding result is on record as “binds”.
